In this data set the target is T1, TAp63γ (UniProt Q9H3D4).
T1 sequence: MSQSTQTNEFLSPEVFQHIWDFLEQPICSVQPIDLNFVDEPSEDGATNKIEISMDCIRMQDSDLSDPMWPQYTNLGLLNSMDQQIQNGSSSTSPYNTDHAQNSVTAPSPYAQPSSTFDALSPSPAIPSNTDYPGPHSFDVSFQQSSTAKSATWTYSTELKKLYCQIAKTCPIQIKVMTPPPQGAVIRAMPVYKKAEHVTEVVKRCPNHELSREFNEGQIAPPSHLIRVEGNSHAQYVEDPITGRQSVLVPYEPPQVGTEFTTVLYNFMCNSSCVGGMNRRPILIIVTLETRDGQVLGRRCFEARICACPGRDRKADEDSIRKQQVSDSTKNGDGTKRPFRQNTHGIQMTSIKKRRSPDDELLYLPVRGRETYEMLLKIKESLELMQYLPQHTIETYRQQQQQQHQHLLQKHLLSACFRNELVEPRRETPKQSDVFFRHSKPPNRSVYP
The data set is described as follows: cell_activity. Particulars: Saos-2 reporter, levels approaching 80% of p53.

For the substance “PG-13 β-galactosidase reporter (multiple copies of minimal p53 binding sequence)”, the activity is 80 % of p53.

(Values after patent US6946256.)
